From patent publication US20230391872A1 (ANAPTYSBIO, published 2023)

Legend:
[1] = molecular target: T1, human BTLA on cells (stably transfected 293c18 cells; human peripheral blood T and B cells) (human, UniProt Q7Z6A9 31-289); experiment: flow cytometry, DyLight 650-labeled 6G3 IgG4 on human peripheral blood CD8+ T cells
T1 construct: whole, on cells; the cells are named under assay; also called cell surface BTLA; full-length human BTLA
Experimental: (§1) PBMCs were washed and incubated at 2×10⁷ cells/ml in FACS buffer (PBS, 1% BSA, 0.02% sodium azide) with Human BD Fc Block (2.5 μg/1×10⁶ cells, BD Biosciences) and LIVE/DEAD® Fixable Yellow Dead Cell Stain (30 μl, ThermoFisher Scientific) for 10 minutes on ice. Cells were washed once in FACS buffer, resuspended in FACS buffer at 1×10⁷ cells/ml and the following phenotyping antibodies added: Alexa Fluor 488-anti-human CD3E clone SK7, Brilliant Violet 421-anti-human CD4 clone OKT4, Brilliant Violet 785-anti-human CD8 clone SK1, and Brilliant Violet 570-anti-human CD20 clone 2H7 (50 μl each; all from BioLegend, Inc.). […] Samples were washed twice in FACS buffer, resuspended in 150 μl/well FACS buffer, and analyzed for fluorescence on a NovoCyte Flow Cytometer (ACEA Biosciences, Inc.). Data were analyzed using NovoExpress Software (ACEA Biosciences, Inc.). Median fluorescence intensities of anti-BTLA or isotype staining on gated CD4⁺ T cells (FIG. 4), CD8⁺ T cells (FIG. 4), or CD20⁺ B cells (FIG. 4) were graphed and curves fit with log(agonist) vs. response (three parameters) least squares fit for EC₅₀ calculation in GraphPad Prism (GraphPad Software, Inc.).

[2] = molecular target: T1, human BTLA on cells (stably transfected …); experiment: flow cytometry (MFI DyL650) on gated CD4+ T cells of human PBMC, DyLight 650-labelled antibody, three-parameter fit [left panel (Naive CD4+ T cells]
Experimental: as §1, with “Human peripheral blood mononuclear cells (PBMCs) were isolated by Histopaque (Sigma-Aldrich) density-gradient centrifugation of normal donor blood obtained from the San Diego Blood Bank (San Diego, CA). PBMCs” for “PBMCs”

EC50 [1]: ~3.2 nM
EC50 [2]: 2.44 nM
B1: 6G3 IgG4 anti-BTLA antibody (APE10840 / APE12839 / APE13308) (antibody, V domains shown)
VH: QVQLVQSGAEVKKPGSSVKVSCKASGYVFSTSWMNWVRQAPGQGLEWMGRIYPGDADTNYVGKFKGRVTITADKSTTTAYMELSSLRSEDTAVYFCAKSGTFNFGNYRWYFDVWGKGTTVTVSS
VL: AIQLTQSPSSLSASVGDRVTITCRVSENIYSHLAWYQQKPGKAPKLLIYAATNLALGVPSRFSGSGSGTDYTLTISSLQPEDFATYYCQLFWGPPLTFGGGTKVEIKR
notes: Humanized antibody from a mouse hybridoma, tested as human IgG4 (detected with anti-human kappa); Some assays used labelled lots (DyLight 650, AF647, biotin, DyL488); also called 6G3 antibody; APE10840.03
